Reference: US20220153822A1 (ALYTAS THERAPEUTICS, published 2022)

T1: Perilipin epitope 5 peptide AKPSLLSRVGALTNT (SEQ ID NO. 332) (human, Biotin-PEG Spacer and GGSGGS Linker (SEQ ID NO. 438) at the N-terminus, or Biotin-PEG Spacer and AAAAA Linker (SEQ ID NO. 439) at the C-terminus)
T1 construct: Two biotinylated variants were used for selection and ELISA; On the peptide array it stood without biotin; also called target peptide
T1 peptide: AKPSLLSRVGALTNT

T2: Perilipin epitope 2 peptide QYPPEKIASELKDTI (SEQ ID NO. 331) (human, Biotin-PEG Spacer and GGSGGS Linker (SEQ ID NO. 438) at the N-terminus, or Biotin-PEG Spacer and AAAAA Linker (SEQ ID NO. 439) at the C-terminus)
T2 construct: Two biotinylated variants were used for selection and ELISA; On the peptide array it stood without biotin; also called target peptide
T2 peptide: QYPPEKIASELKDTI

T3: Perilipin epitope 1 peptide NKGLTLLDGDLPEQE (SEQ ID NO. 330) (human, Biotin-PEG Spacer and GGSGGS Linker (SEQ ID NO. 438) at the N-terminus, or Biotin-PEG Spacer and AAAAA Linker (SEQ ID NO. 439) at the C-terminus)
T3 construct: Two biotinylated variants were used for selection and ELISA; On the peptide array it stood without biotin; also called target peptide
T3 peptide: NKGLTLLDGDLPEQE


Columns and labels:
Assay in all cases: phage display selection and ELISA on biotinylated target peptide
[1] = target: T1, Perilipin epitope 5 peptide …
[2] = target: T2, Perilipin epitope 2 peptide …
[3] = target: T3, Perilipin epitope 1 peptide …

Binder | binding result [1] | binding result [3] | further results
Antibody No. 16 (antibody, V domains shown, human IgG1, lambda or kappa light chain; also called 447-B05) VH: QVQLVEFGGGVVQPGRSLRLSCAASGFTFSSYGMHWVRQAPGKGLEWVAAISYDGSNKYYADSVKGRFTISRDNSKNTLYLQMNSLRAEDTAVYYCAKDMGLSWYGEFDYWGQGTLVTVSS VL: QSVLTQPPSVSEAPRQRVTISCSGSSSNIGNNAVSWYQQLPGKAPKLLIYYDDLLPSGVSDRFSGSKSGTSASLAISGLQSEDEADYYCAAWDDSLNWVFGGGTKLTVL | binds |  | 
Antibody No. 19 (antibody, V domains shown, human IgG1, lambda or kappa light chain; also called 447-D04) VH: QVQLVQSGGGVVQPRRSLRLSCAASGFTFSSYAMHWVRQAPGKGLEWVAVISYDGSNKYYADPVKGRFTISRDNSKNTLYLQMNSLRAEDTAVYYCARGGDGYNWDAFDIWGQGTMVTVSS VL: not shown | binds |  | 
Antibody No. 11 (antibody, V domains shown, human IgG1, lambda or kappa light chain; also called 447-D12) VH: QVQLVQSGAEVKKPGASVKVSCKASGYTFTSYGISWVRQAPGQGLEWMGWISAYNGNTNYAQKLQGRVTMTTDTSTSTAYMELRSLRSDDTAVYYCASLYCSGGSCYSALDPWGQGTLVTVSS VL: QSVLTQPPSVSGAPGQRVTISCTGSSSNIGAGYDVHWYQQLPGTAPKLLIYGNSNRPSGVPDRFSGSKSGTSASLAITGLQAEDEADYYCQSYDSSLRYVVFGGGTKVTVL |  |  | binding result [2]: binds
Antibody No. 22 (antibody, V domains shown, human IgG1, lambda or kappa light chain; also called 447-H03) VH: QVQLVESGGGVVQPGRSLRLSCAASGFTFSSYGMHWVRQAPGKGLEWVAVISYDGSNKYYADSVKGRFTISRDNSKNTLYLQMNSLRAEDTAVYYCANTPGGLTPFDYWGQGTLVTVSS VL: not shown | binds |  | 
Antibody No. 9 (antibody, V domains shown, human IgG1, lambda or kappa light chain; also called 448-G01) VH: QVQLVQSGGGVVQPGRSLRLSCAASGFTFSSYGMHWVRQAPGKGLEWVAVISYDGSNKYYADSVKGRFTISRDNSKNTLYLQMNSLRAEDTAVYYCANNPSSGADYWGQGTLVTVSS VL: not shown |  | binds | 
Antibody No. 14 (antibody, V domains shown, human IgG1, lambda or kappa light chain; also called 432-H10) VH: QVQLVESGGGLVQPGRSLRLSCAASGFTFDDYAMHWVRQAPGKGLEWVSGISWNSGSIGYADSVKGRFTISRDNAKNSLYLQMNSLRAEDTALYYCAKEGYGNDAFDIWGQGTMVTVSS VL: not shown | binds |  | 
Antibody No. 8 (antibody, V domains shown, human IgG1, lambda or kappa light chain; also called 448-E03) VH: QVQLVESGAEVKKPGASVKVSCKASGYTFTSYGISWVRQAPGQGLEWMGWISAYNGNTNYAQKLQGRVTMTTDTSTSTAYMELRSLRSDDTAVYYCARGGSSSNYWGQGTLVTVSS VL: QSALTQPASVSGSPGQSITISCTGTSSDVGGYNYVSWYQQHPGKAPKLMIYEVSNRPSGVSNRFSGSKSGNTASLTISGLQAEDEADYYCSSYTSSSTLVFGGGTKLTVL |  | binds | 
Antibody No. 21 (antibody, V domains shown, human IgG1, lambda or kappa light chain; also called 447-G03) VH: QVQLVESGGGLVQPGRSLRLSCAASGFTFDDYAMHWVRQAPGKGLEWVSGISWNSGSIGYADSVKGRFTISRDNAKNSLYLQMNSLRAEDTALYYCAKEGEYSYGGGEFDPWGQGTLVTVSS VL: QSALTQPASVSGSPGQSITISCTGTSSDVGGYNYVSWYQQHPGKAPKLMIYDVSNRPSGVSNRFSGSKSGNTASLTISGLQAEDEADYYCSSYTSSSTWVFGGGTKLTVL | binds |  | 
Antibody No. 5 (antibody, V domains shown, human IgG1, lambda or kappa light chain; also called 438-G12; antibody #5) VH: QVQLVESGGGVVQPGRSLRLSCAASGFTFSSYAMHWVRQAPGKGLEWVAVISYDGSNKYYADSVKGRFTISRDNSKNTLYLQMNSLRAEDTAVYYCARIAAAGPFDYWGQGTLVTVSS VL: SYVLTQPPSVSEAPRQRVTISCSGSSSNIGNNAVNWYQQLPGKAPKLLIYYDDLLPSGVSDRFSGSKSGTSASLAISGLQSEDEADYYCAAWDDSLNGVVFGGGTKLTVL |  | binds | 
Antibody No. 10 (antibody, V domains shown, human IgG1, lambda or kappa light chain; also called 439-E10) VH: EVQLVQSGAEVKKPGSSVKISCKASGGTFSSYAISWVRQAPGQGLEWMGGIIPIFGTANYAQKFQGRVTITADESTSTAYMELSSLRSEDTAVYYCARSHSSGWEWWGQGTLVTVSS VL: not shown |  |  | binding result [2]: binds
Antibody No. 6 (antibody, V domains shown, human IgG1, lambda or kappa light chain; also called 448-B03) VH: not shown VL: QSALTQPASVSGSPGQSITISCTGTSSDVGGYNYVSWYQQHPGKAPKLMIYDVSNRPSGVSNRFSGSKSGNTASLTISGLQAEDEADYYCSSYTSSSTHVVFGGGTKLTVL |  | binds | 
Antibody No. 17 (antibody, V domains shown, human IgG1, lambda or kappa light chain; also called 447-C04) VH: EVQLVQSGGGVVQPGRSLRLSCAASGFTFSSYGMHWVRQAPGKGLEWVAVISYDGSNKYYADSVKGRFTISRDNSKNTLYLQMNSLRAEDTAVYYCAKDIFMDVWGQGTMVTVSS VL: QSALTQPASVSGSPGQSITISCTGTSSDVGGYNYVSWYQQHPGKAPKLMIYDVSNRPSGVSNRFSGSKSGNTASLTISGLQAEDEADYYCSSYTSSSTLVVFGGGTKLTVL | binds |  | 
Antibody No. 18 (antibody, V domains shown, human IgG1, lambda or kappa light chain; also called 447-D03) VH: EVQLLESGGGLVQPGRSLRLACVASGFTFDDYGMHWVRQAPGKGLEWVAVISYDGSNKYYADSVKGRFTISRDNSKNTLYLQMNSLRAEDTAVYYCAKAYGEGGFDPWGQGTLVTVSS VL: QSALTQPASVSGSPGQSITISCTGTSSDVGGYNYVSWYQQHPGKAPKLMIYEVSNRPSGVSNRFSGSKSGNTASLTISGLQAEDEADYYCSSYTSSSTTWVFGGGTKVTVL | binds |  | 
Antibody No. 7 (antibody, V domains shown, human IgG1, lambda or kappa light chain; also called 448-D02) VH: QVQLVQSGGSVVQPGRSLRLSCAASGFTFSSYAMHWVRQAPGKGLEWVAVISYDGSNKYYADSVKGRFTISRDNSKNTLYLQMNSLRAEDTAVYYCARFASIAARPFDYWGQGTLVTVSS VL: not shown |  | binds | 
